This assay has as its target T1, His6-PRMT5 (UniProt O14744 1-637).
T1 construct: PRMT5, cDNA AF167572.1 in pReceiver-B01 (GeneCopoeia EX-V1247-B01); also called protein arginine N-methyltransferase 5; source: E. coli BL21, purified (Ni-beads)
The assay can be described thus: pull-down; GST-CRN5 on glutathione-sepharose beads as bait; TEV-cleaved MAPK14 or purified His6-PRMT5 as prey; 50 mM Tris/HCl pH 8.0, 150 mM NaCl, 0.5 % NP-40; three washes; SDS-PAGE and immunoblot. The note with it: both partners purified.

Here are results for one molecule from paper PMC4612562, “Coronin 2A (CRN5) expression is associated with colorectal adenoma-adenocarcinoma sequence and oncogenic signalling” (BMC Cancer, 2015).

T1 sequence (O14744 whole entry): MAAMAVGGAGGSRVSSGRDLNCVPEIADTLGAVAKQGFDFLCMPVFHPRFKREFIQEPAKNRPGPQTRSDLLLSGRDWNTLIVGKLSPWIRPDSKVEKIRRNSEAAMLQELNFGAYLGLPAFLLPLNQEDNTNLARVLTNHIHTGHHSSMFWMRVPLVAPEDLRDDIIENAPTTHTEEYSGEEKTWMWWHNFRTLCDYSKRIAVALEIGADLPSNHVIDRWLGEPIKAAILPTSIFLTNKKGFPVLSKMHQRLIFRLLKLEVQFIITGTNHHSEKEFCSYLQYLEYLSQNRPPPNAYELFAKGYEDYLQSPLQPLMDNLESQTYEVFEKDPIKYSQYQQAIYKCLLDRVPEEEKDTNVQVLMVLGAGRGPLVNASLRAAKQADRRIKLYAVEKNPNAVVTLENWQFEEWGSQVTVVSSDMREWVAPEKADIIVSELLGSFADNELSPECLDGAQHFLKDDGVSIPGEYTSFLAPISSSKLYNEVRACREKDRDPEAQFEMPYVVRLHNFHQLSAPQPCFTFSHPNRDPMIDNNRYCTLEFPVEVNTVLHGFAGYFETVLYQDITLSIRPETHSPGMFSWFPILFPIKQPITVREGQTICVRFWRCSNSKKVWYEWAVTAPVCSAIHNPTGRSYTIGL

B1: GST-CRN5 (coronin 2A) (natural protein, human, UniProt Q92828 1-525, looked up)
chain: MSWHPQYRSSKFRHVFGKPASKENCYDSVPITRSVHDNHFCAVNPHFIAVVTECAGGGAFLVIPLHQTGKLDPHYPKVCGHRGNVLDVKWNPFDDFEIASCSEDATIKIWSIPKQLLTRNLTAYRKELVGHARRVGLVEWHPTAANILFSAGYDYKVMIWNLDTKESVITSPMSTISCHQDVILSMSFNTNGSLLATTCKDRKIRVIDPRAGTVLQEASYKGHRASKVLFLGNLKKLMSTGTSRWNNRQVALWDQDNLSVPLMEEDLDGSSGVLFPFYDADTSMLYVVGKGDGNIRYYEVSADKPHLSYLTEYRSYNPQKGIGVMPKRGLDVSSCEIFRFYKLITTKSLIEPISMIVPRRSESYQEDIYPPTAGAQPSLTAQEWLSGMNRDPILVSLRPGSELLRPHPLPAERPIFNSMAPASPRLLNQTEKLAAEDGWRSSSLLEEKMPRWAAEHRLEEKKTWLTNGFDVFECPPPKTENELLQMFYRQQEEIRRLRELLTQREVQAKQLELEIKNLRMGSEQL
notes: coronin 2A (CRN5), human cDNA NM_052820 (origene SC109892) cloned into pGEX-4T-1; pGEX-4T-1 normally places GST at the N-terminus (surmised); also called coronin 4; ClipinB; source: E. coli BL21, purified on glutathione beads (pull-down); E. coli lysate captured on CRN5 mAb K77-578-1 / Protein G microbeads (co-immunoprecipitation)
Consider B1, for which the binding result is recorded as “binds”.
